{"source": "patent JP2018158894A", "about": "(dated 2018)", "binders": {"B1": {"name": "m164抗体 (anti-LGR6 mouse monoclonal antibody produced by hybridoma clone 164) (antibody, V domains shown)", "VH": "EVQLQQSGPELVKPGASVKISCKTSGYTFTEYTMHWVKQSHGKSLEWIGGINPYNRVSSYNQRFKGKATLTVDKSSSTAYMELRSLTSEDSAVYYCARRYDVFDSWGQGTTLTVSS", "VL": "DIVMSQSPSSLAVSVGEKVSMSCKSSQSLLYSSNQKNYLAWYQQKPGQSPKLLISWASTRESGVPARFTGSGSGTDFTLTISSVRAEDLAVYYCQQHFNYPYTFGGGAKLEMK", "notes": "Tested as the mouse antibody from the hybridoma (culture supernatant or Protein G purified); the primers used were for mouse IgG1 CH and mouse kappa light chain; also called m164; LGR6抗体m164"}}, "molecular_target": "T1, ヒンジ領域組換えタンパク質 (LGR6 hinge region partial protein, amino acids 446-567, with Trx-, S- and His-tags) (Homo sapiens (Human), UniProt Q9HBX8 446-567)", "T1 construct": "Used as immunogen and as ELISA antigen; also called LGR6のヒンジ領域部分タンパク質; hinge region recombinant protein; not shown: N-terminal Trx-, S- and His-tag from the pET32b vector; C-terminal His-tag from the pET32b vector", "T1 sequence": "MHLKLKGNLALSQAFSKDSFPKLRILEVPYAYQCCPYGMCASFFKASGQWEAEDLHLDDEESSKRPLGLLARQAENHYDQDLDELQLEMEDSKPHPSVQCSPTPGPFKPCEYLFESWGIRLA", "test": "Ag-ELISA, hybridoma culture supernatant on coated protein", "data": [{"binder": "B1", "values": [{"measurement": "binding result", "result": "binds"}]}]}
